The source of these data is patent US8277440B2, “Implantable device for controlled, extended delivery of parathyroid hormone” (MicroCHIPS, Inc., priority 2002, dated 2012).

For one series, the system named is skeletal homeostasis. Conditions: cited from earlier work.
Series [1] can be described thus: Solubility of PTH as a function of pH. In kind it is physicochemical. From the text:
While not being bound by any theory, it is believed that this phenomena was due to the salts (e.g., MW ˜60) in the PTH solution diffusing into the physiological solution at a rate that exceeded the rate of diffusion of the PTH (e.g., MW ˜4000) due, for example, to the molecular weight (MW) dependence of diffusion rate, to such an extent that the pH of the PTH solution increased to a point exceeding that required to keep the PTH in solution. (For example, at pH 3, the PTH has a solubility of about 100 μg/ml and at pH 7, the PTH has a solubility of about 20 μg/ml.)

parathyroid hormone [PTH]: the bone volume entry in the series with skeletal homeostasis (daily dose given as one single injection) was “dose dependent increase”. Besides, the “effect on serum calcium” value with skeletal homeostasis (in vivo) is recorded as “dose dependent increase”. Further, the “effect on serum calcium levels” value in the series with skeletal homeostasis (in vivo) was “practically no effect”. In the series with skeletal homeostasis (same daily dose by continuous infusion with subcutaneous mini-osmotic pump), the result on bone was “bone loss”. Moreover, the solubility entry in series [1] (pH 3) was “about 100 μg/ml”; in series [1] (pH 7) it was “about 20 μg/ml”.
